B1: Tumor necrosis factor receptor superfamily member 11A (Mus musculus), O35305 (parent)
chain: MAPRARRRRQLPAPLLALCVLLVPLQVTLQVTPPCTQERHYEHLGRCCSRCEPGKYLSSKCTPTSDSVCLPCGPDEYLDTWNEEDKCLLHKVCDAGKALVAVDPGNHTAPRRCACTAGYHWNSDCECCRRNTECAPGFGAQHPLQLNKDTVCTPCLLGFFSDVFSSTDKCKPWTNCTLLGKLEAHQGTTESDVVCSSSMTLRRPPKEAQAYLPSLIVLLLFISVVVVAAIIFGVYYRKGGKALTANLWNWVNDACSSLSGNKESSGDRCAGSHSATSSQQEVCEGILLMTREEKMVPEDGAGVCGPVCAAGGPWAEVRDSRTFTLVSEVETQGDLSRKIPTEDEYTDRPSQPSTGSLLLIQQGSKSIPPFQEPLEVGENDSLSQCFTGTESTVDSEGCDFTEPPSRTDSMPVSPEKHLTKEIEGDSCLPWVVSSNSTDGYTGSGNTPGEDHEPFPGSLKCGPLPQCAYSMGFPSEAAASMAEAGVRPQDRADERGASGSGSSPSDQPPASGNVTGNSNSTFISSGQVMNFKGDIIVVYVSQTSQEGPGSAEPESEPVGRPVQEETLAHRDSFAGTAPRFPDVCATGAGLQEQGAPRQKDGTSRPVQEQGGAQTSLHTQGSGQCAE

Variants of: B1
Details: with Tnfsf11, O35235-1
Chain of Tnfsf11, O35235-1 (O35235 whole entry): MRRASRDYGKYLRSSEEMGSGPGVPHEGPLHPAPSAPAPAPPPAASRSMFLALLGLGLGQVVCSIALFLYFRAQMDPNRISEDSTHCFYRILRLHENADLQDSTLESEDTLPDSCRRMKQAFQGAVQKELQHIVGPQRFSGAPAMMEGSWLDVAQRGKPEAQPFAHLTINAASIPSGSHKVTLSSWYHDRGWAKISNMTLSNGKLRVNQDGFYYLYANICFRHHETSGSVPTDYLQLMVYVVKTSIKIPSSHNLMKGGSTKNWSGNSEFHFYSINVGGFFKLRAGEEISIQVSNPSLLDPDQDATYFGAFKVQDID

effect of a mutation on the interaction | Variant
disrupting interaction | C127A
decreasing interaction | D85A
disrupting interaction | E126A
disrupting interaction | K171G
disrupting interaction | G54R
disrupting interaction | K97A
